Experimental data taken from US20150044195A1.

Molecular target: Native (wild-type) human factor VIIa (human) (UniProt P08709)
Assay: cell-based or functional assay

Sequence of UniProt P08709 (P08709 213-466, chain 2 of 2, other chains not shown): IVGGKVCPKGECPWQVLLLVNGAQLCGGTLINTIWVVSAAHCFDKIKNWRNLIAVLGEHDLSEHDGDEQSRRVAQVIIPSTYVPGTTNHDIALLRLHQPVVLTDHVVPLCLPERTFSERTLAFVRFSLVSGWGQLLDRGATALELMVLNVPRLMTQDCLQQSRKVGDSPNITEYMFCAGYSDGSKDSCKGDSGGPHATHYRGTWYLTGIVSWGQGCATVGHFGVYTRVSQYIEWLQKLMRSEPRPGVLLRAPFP

Relative first-order rate constants (ratio) of ATIII inhibition (ratio to wt-Factor VIIa): 1
Substance: Antithrombin III (ATIII) (from UniProt P01008 33-464)
